According to PMC7079100:

How the values were obtained:
[1] = biological target: T1, MSI2-RRM1 (Homo sapiens, UniProt Q96DH6 21-111); experiment: fluorescence polarization; 2 nM RNA; lower affinity than Numb15; Kd only in figure; FP at room temperature, 2 nM 3' FAM RNA; buffer, salt and pH not given (previously described methods)
[2] = biological target: T1, MSI2-RRM1; experiment: fluorescence polarization; 2 nM RNA; highest affinity of the three; Kd only in figure; FP at room temperature, 2 nM 3' FAM RNA; buffer, salt and pH not given (previously described methods)

T1 sequence (Q96DH6 21-111): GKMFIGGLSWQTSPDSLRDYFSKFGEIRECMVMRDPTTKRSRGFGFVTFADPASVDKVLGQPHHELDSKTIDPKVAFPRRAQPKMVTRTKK

| Binder | binding result [1] | binding result [2] |
| --- | --- | --- |
| GUAGUAGU (ssRNA) [Numb8] | binds |  |
| UAGGUAGUAGUUUUA (ssRNA) [Numb15] |  | binds |
| GUAGU (ssRNA) [Numb5] | binds |  |
